# Results reported in article PMC10208894, “The SmNPR4-SmTGA5 module regulates SA-mediated phenolic acid biosynthesis in Salvia miltiorrhiza hairy roots”.
# T1: SmTGA5 (Salvia miltiorrhiza, UniProt UPI0025ACD97B 1-458)
# T1 sequence: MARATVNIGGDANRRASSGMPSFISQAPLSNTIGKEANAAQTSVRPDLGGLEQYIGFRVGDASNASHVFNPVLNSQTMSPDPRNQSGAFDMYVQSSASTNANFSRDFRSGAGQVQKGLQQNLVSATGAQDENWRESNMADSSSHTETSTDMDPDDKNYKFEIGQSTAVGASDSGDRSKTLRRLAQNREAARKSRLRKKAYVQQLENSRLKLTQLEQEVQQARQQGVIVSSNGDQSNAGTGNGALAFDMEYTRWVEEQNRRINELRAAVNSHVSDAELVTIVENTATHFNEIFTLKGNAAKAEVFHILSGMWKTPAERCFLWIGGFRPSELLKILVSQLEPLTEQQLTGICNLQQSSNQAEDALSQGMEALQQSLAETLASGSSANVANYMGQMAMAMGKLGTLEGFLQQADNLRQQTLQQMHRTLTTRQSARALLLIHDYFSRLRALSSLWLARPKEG
# B1: Probe-pTAT1 (3x as-1) (dsDNA)
# DNA 1: TTTAAAGTGACGTGTATCATTTAAAGTGACGTGTATCATTTAAAGTGACGTGTATCA
# DNA 2: TGATACACGTCACTTTAAATGATACACGTCACTTTAAATGATACACGTCACTTTAAA
# B2: Mut-Probe-pTAT1 (dsDNA)
# DNA 1: TTTAAAGTTAAATGTATCATTTAAAGTTAAATGTATCATTTAAAGTTAAATGTATCA
# DNA 2: TGATACATTTAACTTTAAATGATACATTTAACTTTAAATGATACATTTAACTTTAAA
# How the values were obtained:
# SmTGA5 [1] = target: T1, SmTGA5; assay: EMSA; unlabeled probe at 1:10 and 1:100 reduces the shift; Beyotime GS009 EMSA kit, 20-25 C, 20 min, acrylamide gel; buffer, salt and pH not stated; settings: protein: recombinant; tags: His (pET32a, N-terminal fusion); chain copies: 2; blunt
# SmTGA5 [2] = target: T1, SmTGA5; assay: EMSA; Beyotime GS009 EMSA kit, 20-25 C, 20 min, acrylamide gel; buffer, salt and pH not stated; settings: protein: recombinant; tags: His (pET32a, N-terminal fusion); chain copies: 2; blunt
Binder,binding result (SmTGA5 [1]),binding result (SmTGA5 [2])
B1,binds,
B2,,no binding
